In the Immune Epitope Database (IEDB):

Legend:
HLA-A*24:02 = experiment: IEDB peptide-MHC binding, purified MHC/competitive/fluorescence; filed as Kd, often an IC50 or EC50 that approximates it; ≥ and ≤ were set here for values at or beyond the usual limits of such assays; settings: source organism: Entamoeba histolytica
HLA-B*15:42 = experiment: as above
HLA-A*32:15 = experiment: as above; settings: source organism: Entamoeba histolytica
HLA-B*45:06 = experiment: as above
HLA-C*14:02 = experiment: as above; settings: source organism: Entamoeba histolytica
HLA-B*83:01 = experiment: as above
HLA-C*06:02 = experiment: as above; settings: source organism: Entamoeba histolytica
HLA-A*32:07 = experiment: as above; settings: source organism: Entamoeba histolytica
HLA-C*04:01 = experiment: as above; settings: source organism: Entamoeba histolytica
HLA-A*24:03 = experiment: IEDB peptide-MHC binding, purified MHC/direct/fluorescence; filed as Kd, often an IC50 or EC50 that approximates it; ≥ and ≤ were set here for values at or beyond the usual limits of such assays; settings: source organism: Entamoeba histolytica HM-1:IMSS
HLA-A*26:03 = experiment: IEDB peptide-MHC binding, purified MHC/competitive/fluorescence; filed as Kd, often an IC50 or EC50 that approximates it; ≥ and ≤ were set here for values at or beyond the usual limits of such assays; settings: source organism: Mycobacterium tuberculosis C
HLA-B*15:17 = experiment: IEDB peptide-MHC binding, purified MHC/direct/fluorescence; filed as Kd, often an IC50 or EC50 that approximates it; ≥ and ≤ were set here for values at or beyond the usual limits of such assays; settings: source organism: Mycobacterium tuberculosis
HLA-B*40:01 = experiment: as above; settings: source organism: Mycobacterium tuberculosis
HLA-B*15:01 [1] = experiment: as above; settings: source organism: Mycobacterium tuberculosis
HLA-A*01:01 = experiment: as above; settings: source organism: Mycobacterium tuberculosis
HLA-A*68:02 = experiment: as above; settings: source organism: Mycobacterium tuberculosis
HLA-A*31:01 = experiment: as above; settings: source organism: Mycobacterium tuberculosis
HLA-B*07:02 = experiment: as above; settings: source organism: Mycobacterium tuberculosis
HLA-B*57:01 = experiment: as above; settings: source organism: Mycobacterium tuberculosis
HLA-B*27:05 [2] = experiment: as above; settings: source organism: Mycobacterium tuberculosis
HLA-B*46:01 = experiment: as above; settings: source organism: Mycobacterium tuberculosis
HLA-B*48:01 = experiment: as above; settings: source organism: Mycobacterium tuberculosis
HLA-B*58:01 = experiment: as above; settings: source organism: Mycobacterium tuberculosis
HLA-A*11:01 = experiment: as above; settings: source organism: Mycobacterium tuberculosis
HLA-B*18:01 = experiment: as above; settings: source organism: Mycobacterium tuberculosis
HLA-A*02:01 = experiment: as above; settings: source organism: Mycobacterium tuberculosis
HLA-A*02:06 = experiment: IEDB peptide-MHC binding, purified MHC/competitive/fluorescence; filed as Kd, often an IC50 or EC50 that approximates it; ≥ and ≤ were set here for values at or beyond the usual limits of such assays; settings: source organism: Mycobacterium tuberculosis C
HLA-B*15:01 [3] = experiment: as above; settings: source organism: Mycobacterium tuberculosis C
HLA-B*27:05 [4] = experiment: as above; settings: source organism: Mycobacterium tuberculosis C
HLA-A*69:01 = experiment: IEDB peptide-MHC binding, purified MHC/direct/fluorescence; filed as Kd, often an IC50 or EC50 that approximates it; ≥ and ≤ were set here for values at or beyond the usual limits of such assays; settings: source organism: Mycobacterium tuberculosis
HLA-A*26:02 = experiment: as above; settings: source organism: Mycobacterium tuberculosis str. Haarlem
HLA-B*08:02 = experiment: as above; settings: source organism: Mycobacterium tuberculosis str. Haarlem
HLA-B*08:03 = experiment: as above; settings: source organism: Mycobacterium tuberculosis str. Haarlem
HLA-B*08:01 = experiment: as above; settings: source organism: Mycobacterium tuberculosis str. Haarlem
[5] = source organism: Entamoeba histolytica
[6] = source organism: Mycobacterium tuberculosis C

Measured: Kd

SYMSTFPLF
0.613 µM: HLA-C*06:02
≤ 0.001 µM: HLA-A*24:03
0.784 µM: HLA-A*32:15
0.0883 µM: HLA-C*04:01
0.0005 µM: HLA-A*32:07
≤ 0.0001 µM: HLA-A*24:02 | HLA-C*14:02
≥ 5 µM: HLA-B*15:42; [5] | HLA-B*45:06; [5] | HLA-B*83:01; [5]

QINELHHSK
0.0685 µM: HLA-A*11:01
0.335 µM: HLA-A*31:01
≥ 20 µM: HLA-A*26:03 | HLA-B*15:17 | HLA-B*40:01 | HLA-B*15:01 [1] | HLA-A*01:01 | HLA-A*68:02 | HLA-B*07:02 | HLA-B*57:01 | HLA-B*27:05 [2] | HLA-B*46:01 | HLA-B*48:01 | HLA-B*58:01 | HLA-B*18:01 | HLA-A*02:01

ALFDRPAFK
0.325 µM: HLA-A*02:06
≥ 20 µM: HLA-B*15:01 [3] | HLA-B*27:05 [4] | HLA-A*26:03 | HLA-A*69:01 | HLA-B*15:17 | HLA-B*40:01 | HLA-A*01:01 | HLA-A*68:02 | HLA-B*07:02 | HLA-A*26:02 | HLA-B*57:01 | HLA-B*46:01 | HLA-B*48:01 | HLA-B*58:01 | HLA-B*08:02 | HLA-B*18:01 | HLA-B*08:03 | HLA-B*08:01
0.0047 µM: HLA-A*31:01
≥ 5 µM: HLA-B*15:42; [6] | HLA-B*45:06; [6] | HLA-B*83:01; [6]
0.024 µM: HLA-A*11:01
